Assay results from article PMC4528139.
Values joined by “and” are separate entries in the source; they are usually repeats but may differ in a detail not shown here. Equal values may be shown once.

Key:
[1] = target: 40007 (clade CRF01 A-E) gp140 trimer, Strep-tag approach (HIV-1 strain 40007); test: not stated; trimers purified by the Strep-tag approach; manuscript in preparation
[2] = target: JRFL foldon-gp140 (uncleaved foldon trimer) (HIV-1 strain JRFL | bacteriophage T4); test: SEC + native gel or EMSA
[3] = target: SF162 (clade B) gp140 trimer, Strep-tag approach (HIV-1 strain SF162); test: not stated; trimers purified by the Strep-tag approach; manuscript in preparation
[4] = target: Strep-tagged BG505 CR gp140 (uncleaved) (HIV-1 strain BG505); test: native gel or EMSA
[5] = target: Strep-tagged JRFL CP664-gp140 (cleaved trimer) (HIV-1 strain JRFL); test: native gel or EMSA
[6] = target: Strep-tagged JRFL CP664-gp140 (cleaved trimer) (HIV-1 strain JRFL); test: SEC + native gel or EMSA; Strep-Tactin-purified gp140 on Superdex 200 in 25 mM Tris-HCl pH 8, 150 mM NaCl; fractions on blue native PAGE; 293F- or GnTI−-produced
[7] = target: Strep-tagged JRFL CP664-gp140 (cleaved trimer) (HIV-1 strain JRFL); test: negative stain EM
[8] = target: Strep-tagged JRFL CR664-gp140 (uncleaved) (HIV-1 strain JRFL); test: native gel or EMSA
[9] = target: Strep-tagged JRFL CR664-gp140 (uncleaved) (HIV-1 strain JRFL); test: SEC + native gel or EMSA; Strep-Tactin-purified gp140 on Superdex 200 in 25 mM Tris-HCl pH 8, 150 mM NaCl; fractions on blue native PAGE; 293F- or GnTI−-produced
[10] = target: Strep-tagged JRFL CR664-gp140 (uncleaved) (HIV-1 strain JRFL); test: negative stain EM

40007 (clade CRF01 A-E) gp140 trimer, Strep-tag approach (natural protein)
stoichiometry N [1]: 3

JRFL foldon-gp140 (uncleaved foldon trimer)
stoichiometry N [2]: 3

SF162 (clade B) gp140 trimer, Strep-tag approach (natural protein)
stoichiometry N [3]: 3

Strep-tagged BG505 CR gp140 (uncleaved) (natural protein)
stoichiometry N [4]: 3

Strep-tagged JRFL CP664-gp140 (cleaved trimer) (complex)
stoichiometry N [5]: 3
fold, fraction of gp140 recovered as trimers against uncleaved gp140 [6]: 3 fold and 5 fold
stoichiometry N [6]: 3
stoichiometry N [7]: 3

Strep-tagged JRFL CR664-gp140 (uncleaved) (natural protein)
stoichiometry N [8]: 2 and 3
stoichiometry N [9]: 3
stoichiometry N [10]: 3
